Results taken from patent US20230212549A1 (3B PHARMACEUTICALS, published 2023).
Numbered stars: 1 amine (or outer) side, 2 acyl side, 3 side chain; on linkers, the order of the positions; unused ones are H or OH. Bridge positions count the residues as written; N and C are the ends. Square brackets hold non-standard residues; d marks the D form. Primed or numbered codes have the meaning given here. * marks the point of attachment. Ttds″ = 1,13-diamino-4,7,10-trioxatridecan-succinamic acid spacer, O=C(CCC(=O)[*:2])NCCCOCCOCCOCCCN[*:1]; Ttds(4) = spacer between chelator and peptide, O=C(CCC(=O)[*:2])NCCCOCCOCCOCCCN[*:1]; DOTA = O=C(O)CN1CCN(CC(=O)O)CCN(CC(=O)*)CCN(CC(=O)O)CC1; mXylylene = c1cc(C[*:1])cc(C[*:2])c1; NMeF = CN[C@@H](Cc1ccccc1)C(=O)O; 4Pal = N[C@@H](Cc1ccncc1)C(=O)O; 4Amb = NCc1ccc(C(=O)O)cc1; Nle = CCCC[C@H](N)C(=O)O; Hexanoyl = CCCCCC(=O)*; NH(CH2)5NH2 = NCCCCCN*; Omp = not defined here; GABA = NCCCC(=O)O

B1: DOTA-Ttds-Nle-[Cys(3MeBn)-Pro-Pro-Thr-Gln-Phe-Cys]-Asp-NH2 (peptide)
peptide: {DOTA}-[Ttds(4)][Nle]CPPTQFCD-NH2
modifications: linker 3-9 via mXylylene
SMILES: CCCC[C@H](NC(=O)CCC(=O)NCCCOCCOCCOCCCNC(=O)CN1CCN(CC(=O)O)CCN(CC(=O)O)CCN(CC(=O)O)CC1)C(=O)N[C@H]1CSCc2cccc(c2)CSC[C@@H](C(=O)N[C@@H](CC(=O)O)C(N)=O)NC(=O)[C@H](Cc2ccccc2)NC(=O)[C@H](CCC(N)=O)NC(=O)[C@H]([C@@H](C)O)NC(=O)[C@@H]2CCCN2C(=O)[C@@H]2CCCN2C1=O
notes: also called 3BP-3401
B2: Ac-Met-[Cys(3MeBn)-Pro-Pro-Thr-Glu-Phe-Cys]-Asp-His-Phe-arg-Asp-NH2 (peptide)
peptide: Ac-MCPPTEFCDHF[dR]D-NH2
modifications: linker 2-8 via mXylylene
SMILES: CSCC[C@H](NC(C)=O)C(=O)N[C@H]1CSCc2cccc(c2)CSC[C@@H](C(=O)N[C@@H](CC(=O)O)C(=O)N[C@@H](Cc2c[nH]cn2)C(=O)N[C@@H](Cc2ccccc2)C(=O)N[C@H](CCCNC(=N)N)C(=O)N[C@@H](CC(=O)O)C(N)=O)NC(=O)[C@H](Cc2ccccc2)NC(=O)[C@H](CCC(=O)O)NC(=O)[C@H]([C@@H](C)O)NC(=O)[C@@H]2CCCN2C(=O)[C@@H]2CCCN2C1=O
notes: also called 3BP-3212
B3: Ac-Met-[Cys(3MeBn)-Pro-Pro-Thr-Glu-Phe-Cys]-Asp-His-Phe-Arg-asp-NH2 (peptide)
peptide: Ac-MCPPTEFCDHFR[dD]-NH2
modifications: linker 2-8 via mXylylene
SMILES: CSCC[C@H](NC(C)=O)C(=O)N[C@H]1CSCc2cccc(c2)CSC[C@@H](C(=O)N[C@@H](CC(=O)O)C(=O)N[C@@H](Cc2c[nH]cn2)C(=O)N[C@@H](Cc2ccccc2)C(=O)N[C@@H](CCCNC(=N)N)C(=O)N[C@H](CC(=O)O)C(N)=O)NC(=O)[C@H](Cc2ccccc2)NC(=O)[C@H](CCC(=O)O)NC(=O)[C@H]([C@@H](C)O)NC(=O)[C@@H]2CCCN2C(=O)[C@@H]2CCCN2C1=O
notes: also called 3BP-3213
B4: Hex-[Cys(3MeBn)-Pro-Pro-Thr-Glu-Phe-Cys]-Asp-His-Nmf-Arg-Ttds-Lys(DOTA)-NH2 (peptide)
peptide: Hexanoyl-CPPTEFCDH[NMeF]R[Ttds″]K(DOTA)-NH2
modifications: linker 1-7 via mXylylene
SMILES: CCCCCC(=O)N[C@H]1CSCc2cccc(c2)CSC[C@@H](C(=O)N[C@@H](CC(=O)O)C(=O)N[C@@H](Cc2c[nH]cn2)C(=O)N(C)[C@@H](Cc2ccccc2)C(=O)N[C@@H](CCCNC(=N)N)C(=O)NCCCOCCOCCOCCCNC(=O)CCC(=O)N[C@@H](CCCCNC(=O)CN2CCN(CC(=O)O)CCN(CC(=O)O)CCN(CC(=O)O)CC2)C(N)=O)NC(=O)[C@H](Cc2ccccc2)NC(=O)[C@H](CCC(=O)O)NC(=O)[C@H]([C@@H](C)O)NC(=O)[C@@H]2CCCN2C(=O)[C@@H]2CCCN2C1=O
notes: also called 3BP-3275
B5: Hex-[Cys(3MeBn)-Pro-Pro-Thr-Glu-Phe-Cys]-Asp-His-phe-Arg-Ttds-Lys(DOTA)-NH2 (peptide)
peptide: Hexanoyl-CPPTEFCDH[dF]R[Ttds″]K(DOTA)-NH2
modifications: linker 1-7 via mXylylene
SMILES: CCCCCC(=O)N[C@H]1CSCc2cccc(c2)CSC[C@@H](C(=O)N[C@@H](CC(=O)O)C(=O)N[C@@H](Cc2c[nH]cn2)C(=O)N[C@H](Cc2ccccc2)C(=O)N[C@@H](CCCNC(=N)N)C(=O)NCCCOCCOCCOCCCNC(=O)CCC(=O)N[C@@H](CCCCNC(=O)CN2CCN(CC(=O)O)CCN(CC(=O)O)CCN(CC(=O)O)CC2)C(N)=O)NC(=O)[C@H](Cc2ccccc2)NC(=O)[C@H](CCC(=O)O)NC(=O)[C@H]([C@@H](C)O)NC(=O)[C@@H]2CCCN2C(=O)[C@@H]2CCCN2C1=O
notes: also called 3BP-3276
B6: Hex-[Cys(3MeBn)-Pro-Pro-Thr-Glu-Phe-Cys]-Asp-His-Ppa-arg-Ttds-Lys(DOTA)-NH2 (peptide)
peptide: Hexanoyl-CPPTEFCDH[4Pal][dR][Ttds″]K(DOTA)-NH2
modifications: linker 1-7 via mXylylene
SMILES: CCCCCC(=O)N[C@H]1CSCc2cccc(c2)CSC[C@@H](C(=O)N[C@@H](CC(=O)O)C(=O)N[C@@H](Cc2c[nH]cn2)C(=O)N[C@@H](Cc2ccncc2)C(=O)N[C@H](CCCNC(=N)N)C(=O)NCCCOCCOCCOCCCNC(=O)CCC(=O)N[C@@H](CCCCNC(=O)CN2CCN(CC(=O)O)CCN(CC(=O)O)CCN(CC(=O)O)CC2)C(N)=O)NC(=O)[C@H](Cc2ccccc2)NC(=O)[C@H](CCC(=O)O)NC(=O)[C@H]([C@@H](C)O)NC(=O)[C@@H]2CCCN2C(=O)[C@@H]2CCCN2C1=O
notes: also called 3BP-3277
B7: Hex-[Cys(3MeBn)-Pro-Pro-Thr-Glu-Phe-Cys]-Asp-Arg-NH2 (peptide)
peptide: Hexanoyl-CPPTEFCDR-NH2
modifications: linker 1-7 via mXylylene
SMILES: CCCCCC(=O)N[C@H]1CSCc2cccc(c2)CSC[C@@H](C(=O)N[C@@H](CC(=O)O)C(=O)N[C@@H](CCCNC(=N)N)C(N)=O)NC(=O)[C@H](Cc2ccccc2)NC(=O)[C@H](CCC(=O)O)NC(=O)[C@H]([C@@H](C)O)NC(=O)[C@@H]2CCCN2C(=O)[C@@H]2CCCN2C1=O
notes: also called 3BP-3299
B8: Hex-[Cys(3MeBn)-Pro-Pro-Thr-Glu-Phe-Cys]-Asp-Pamb-Arg-NH2 (peptide)
peptide: Hexanoyl-CPPTEFCD[4Amb]R-NH2
modifications: linker 1-7 via mXylylene
SMILES: CCCCCC(=O)N[C@H]1CSCc2cccc(c2)CSC[C@@H](C(=O)N[C@@H](CC(=O)O)C(=O)NCc2ccc(C(=O)N[C@@H](CCCNC(=N)N)C(N)=O)cc2)NC(=O)[C@H](Cc2ccccc2)NC(=O)[C@H](CCC(=O)O)NC(=O)[C@H]([C@@H](C)O)NC(=O)[C@@H]2CCCN2C(=O)[C@@H]2CCCN2C1=O
notes: also called 3BP-3301
B9: Hex-[Cys(3MeBn)-Pro-Pro-Thr-Glu-Phe-Cys]-Asp-Omp-Arg-NH2 (peptide)
peptide: Hexanoyl-CPPTEFCD[Omp]R-NH2
modifications: linker 1-7 via mXylylene; reading uncertain; also: printed as Hex-[Cys(3MeBn)-Pro-Pro-Thr-Glu-Phe-Cys]-Asp-Omp-Arg-NH2
notes: also called 3BP-3302
B10: Hex-[Cys(3MeBn)-Pro-Pro-Thr-Glu-Phe-Cys]-Asp-His-Phe-Arg-Asp-NH2 (peptide)
peptide: Hexanoyl-CPPTEFCDHFRD-NH2
modifications: linker 1-7 via mXylylene
SMILES: CCCCCC(=O)N[C@H]1CSCc2cccc(c2)CSC[C@@H](C(=O)N[C@@H](CC(=O)O)C(=O)N[C@@H](Cc2c[nH]cn2)C(=O)N[C@@H](Cc2ccccc2)C(=O)N[C@@H](CCCNC(=N)N)C(=O)N[C@@H](CC(=O)O)C(N)=O)NC(=O)[C@H](Cc2ccccc2)NC(=O)[C@H](CCC(=O)O)NC(=O)[C@H]([C@@H](C)O)NC(=O)[C@@H]2CCCN2C(=O)[C@@H]2CCCN2C1=O
B11: Ac-Met-[Cys(3MeBn)-Pro-Pro-Thr-Glu-Phe-Cys]-Asp-His-Phe-Arg-Asp-NH2 (peptide)
peptide: Ac-MCPPTEFCDHFRD-NH2
modifications: linker 2-8 via mXylylene
SMILES: CSCC[C@H](NC(C)=O)C(=O)N[C@H]1CSCc2cccc(c2)CSC[C@@H](C(=O)N[C@@H](CC(=O)O)C(=O)N[C@@H](Cc2c[nH]cn2)C(=O)N[C@@H](Cc2ccccc2)C(=O)N[C@@H](CCCNC(=N)N)C(=O)N[C@@H](CC(=O)O)C(N)=O)NC(=O)[C@H](Cc2ccccc2)NC(=O)[C@H](CCC(=O)O)NC(=O)[C@H]([C@@H](C)O)NC(=O)[C@@H]2CCCN2C(=O)[C@@H]2CCCN2C1=O
notes: also called 3BP-2975
B12: Ac-[Cys(3MeBn)-Pro-Pro-Thr-Glu-Phe-Cys]-Asp-His-Phe-Arg-Asp-NH2 (peptide)
peptide: Ac-CPPTEFCDHFRD-NH2
modifications: linker 1-7 via mXylylene
SMILES: CC(=O)N[C@H]1CSCc2cccc(c2)CSC[C@@H](C(=O)N[C@@H](CC(=O)O)C(=O)N[C@@H](Cc2c[nH]cn2)C(=O)N[C@@H](Cc2ccccc2)C(=O)N[C@@H](CCCNC(=N)N)C(=O)N[C@@H](CC(=O)O)C(N)=O)NC(=O)[C@H](Cc2ccccc2)NC(=O)[C@H](CCC(=O)O)NC(=O)[C@H]([C@@H](C)O)NC(=O)[C@@H]2CCCN2C(=O)[C@@H]2CCCN2C1=O
notes: also called 3BP-3202
B13: Hex-[Cys(3MeBn)-Pro-Pro-Thr-Glu-Phe-Cys]-Asp-NH2 (peptide)
peptide: Hexanoyl-CPPTEFCD-NH2
modifications: linker 1-7 via mXylylene
SMILES: CCCCCC(=O)N[C@H]1CSCc2cccc(c2)CSC[C@@H](C(=O)N[C@@H](CC(=O)O)C(N)=O)NC(=O)[C@H](Cc2ccccc2)NC(=O)[C@H](CCC(=O)O)NC(=O)[C@H]([C@@H](C)O)NC(=O)[C@@H]2CCCN2C(=O)[C@@H]2CCCN2C1=O
notes: also called 3BP-3288
B14: Hex-[Cys(3MeBn)-Pro-Pro-Thr-Glu-Phe-Cys]-Asp-Gab-Arg-NH2 (peptide)
peptide: Hexanoyl-CPPTEFCD[GABA]R-NH2
modifications: linker 1-7 via mXylylene
SMILES: CCCCCC(=O)N[C@H]1CSCc2cccc(c2)CSC[C@@H](C(=O)N[C@@H](CC(=O)O)C(=O)NCCCC(=O)N[C@@H](CCCNC(=N)N)C(N)=O)NC(=O)[C@H](Cc2ccccc2)NC(=O)[C@H](CCC(=O)O)NC(=O)[C@H]([C@@H](C)O)NC(=O)[C@@H]2CCCN2C(=O)[C@@H]2CCCN2C1=O
notes: also called 3BP-3300

Assays:
[1] = target: T1, Recombinant human FAP (R&D systems, #3715-SE) (human, UniProt Q12884 26-760); assay: SPR (Biacore T200), FAP captured on anti-FAP antibody, single cycle kinetics
T1 construct: bought; in SPR captured on immobilized anti-FAP antibody MAB3715; also called rhFAP; human recombinant FAP

[2] = target: T2, fibroblast activation protein (FAP) on FAP-expressing human WI-38 fibroblasts (human, UniProt Q12884 1-760); assay: competitive FACS, WI-38 cells, vs Cy5 tracer m3; A = pIC50 >8.0
T2 construct: also called human FAP

[3] = target: Recombinant human FAP (R&D systems, #3715-SE) (human, UniProt Q12884 26-760); assay: cell-based or functional assay

| pKD Category [1] [pKD] | pIC50 Category (FACS) [2] [pIC50] | pIC50 Category (Activity) [3] [pIC50] | Binder |
| --- | --- | --- | --- |
| > 8 | – | – | B1 |
| > 8 | – | – | Hexanoyl-CPPTEFC-NH2 (linker 1-7 via tMeBn(DOTA-AET), also called 3BP-3653) [Hex-[Cys(tMeBn(DOTA-AET))-Pro-Pro-Thr-Glu-Phe-Cys]-NH2] |
| – | > 8 | > 8 | B2 |
| – | > 8 | > 8 | B3 |
| – | > 8 | > 8 | B4 |
| – | > 8 | > 8 | B5 |
| – | > 8 | > 8 | B6 |
| – | > 8 | > 8 | B7 |
| – | > 8 | > 8 | B8 |
| – | > 8 | > 8 | B9 |
| > 8 | – | – | B10 |
| > 8 | – | – | B11 |
| > 8 | – | – | B12 |
| > 8 | – | – | Hexanoyl-CPPTQFCD-{NH(CH2)5NH2-DOTA′} (linker 1-7 via mXylylene, also called 3BP-3403) [Hex-[Cys(3MeBn)-Pro-Pro-Thr-Gln-Phe-Cys]-Asp-Ape-NH-DOTA′] |
| > 8 | – | – | B13 |
| > 8 | – | – | Hexanoyl-CPPTQFCG-OH (linker 1-7 via tMeBn(DOTA-AET), also called 3BP-3656) [Hex-[Cys(tMeBn(DOTA-AET))-Pro-Pro-Thr-Gln-Phe-Cys]-Gly-OH] |
| > 8 | – | – | Hexanoyl-CPPTQFCS-OH (linker 1-7 via tMeBn(DOTA-AET), also called 3BP-3658) [Hex-[Cys(tMeBn(DOTA-AET))-Pro-Pro-Thr-Gln-Phe-Cys]-Ser-OH] |
| > 8 | – | – | B14 |
